Reference: patent US20250154237A1 (A AND G PHARMACEUTICAL, published 2025)
Each block holds one binder with its values, some of them ahead of it.

Assays:
[1] = molecular target: T1, human recombinant his-tagged full-length progranulin (human, UniProt P28799 18-593); test: BLI OctetRed96, mAb captured on AHC sensors, huPGRN as analyte, 25 C; parameters: Response: unit not given here
T1 construct: mature; also called huPGRN; hu PGRN; not shown: his tag
T1 sequence (looked up): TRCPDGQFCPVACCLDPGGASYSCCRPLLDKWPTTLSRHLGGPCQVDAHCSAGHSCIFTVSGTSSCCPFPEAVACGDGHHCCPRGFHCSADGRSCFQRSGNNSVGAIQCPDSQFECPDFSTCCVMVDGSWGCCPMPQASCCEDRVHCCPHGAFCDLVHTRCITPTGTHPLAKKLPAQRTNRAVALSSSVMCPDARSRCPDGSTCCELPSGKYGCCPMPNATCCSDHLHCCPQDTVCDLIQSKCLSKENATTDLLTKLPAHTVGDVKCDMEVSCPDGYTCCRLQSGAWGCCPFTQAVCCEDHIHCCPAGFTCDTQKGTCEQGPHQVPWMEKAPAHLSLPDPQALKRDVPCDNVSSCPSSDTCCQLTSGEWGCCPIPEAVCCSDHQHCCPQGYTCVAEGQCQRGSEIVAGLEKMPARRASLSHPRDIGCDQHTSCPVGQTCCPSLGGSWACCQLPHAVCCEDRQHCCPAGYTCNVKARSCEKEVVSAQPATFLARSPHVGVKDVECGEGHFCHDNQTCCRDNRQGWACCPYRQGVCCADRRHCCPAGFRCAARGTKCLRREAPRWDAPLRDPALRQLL
Description: Determination of Binding Affinity by Octet. OctetRed96 BLI technology was used to examine the binding characteristics of selected fully human antibodies to progranulin. The method is briefly described herein. Assays were performed at 25° C. Pre-conditioning of the pre hydrated (1 hr) anti-human Fc capture (AHC) sensors was performed by repeating 3 cycles of dipping sensors in regeneration buffer followed by neutralizing buffer (PBS). Anti-progranulin mAbs were captured at 20 μg/ml for 360 seconds on pre-conditioned biosensors. Sensors were then dipped in baseline buffer similar to the progranulin diluent (PBS). Sensors were then dipped into progranulin-containing wells as indicated for 420 seconds. The dissociation step was carried out in assay buffer (PBS) for 600 seconds. The KD was determined based on Kₒₙ and Koff using the experimental conditions described above.

[2] = molecular target: T1, human recombinant his-tagged …; test: flow cytometry: progranulin binding to MDA-MB-231 cells with the antibody, % of hIgG control
Description: Progranulin Binding by Flow Cytometry. Binding assays were carried out on an […] Flow Cytometer using the instructions included therein. […] Out of the 45 mAbs assayed, 11 clones (shown in bold in Table 5) produced antibodies that were able to inhibit progranulin binding in a dose dependent fashion.

- Kd [1]: 0.476 nM
- Response [1]: 0.932
- koff [1]: 7.21e-05 s⁻¹
- kon [1]: 152000 M⁻¹ s⁻¹
- % Control [2]: 60%
B1: 16C11 (antibody, V domains shown)
VH: QVQLVESGGGVVQPGRSLRLSCAASGFTFSSYAMHWVRQAPGKGLEWVAVIWYDGSKKYNADSVKGRFTISRDNSKNTLYLQMNSLRAEDTAVYYCARDRGIGGDYWGQGTLVTVSS
VL: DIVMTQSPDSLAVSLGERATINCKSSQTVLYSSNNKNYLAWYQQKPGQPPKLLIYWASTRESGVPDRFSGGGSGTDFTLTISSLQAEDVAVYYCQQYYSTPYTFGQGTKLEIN
notes: Fully human mAb from TC-mAb mouse hybridoma; also called mAb 16C11

- Kd [1]: 0.136 nM
- Response [1]: 0.797
- koff [1]: 1.19e-05 s⁻¹
- kon [1]: 86800 M⁻¹ s⁻¹
- % Control [2]: 62%
B2: 10B3 (antibody, V domains shown)
VH: QVQLVESGGGVVQPGRSLRLSCAASGFTLSGYGMHWVRQAPDKGLEWVAVIWYDGSDKNYADSVKGRFTISRDNSKNTLYLQMNSLRAEDTAVYYCARDRGAVAGDYWGQGTLVTVSS
VL: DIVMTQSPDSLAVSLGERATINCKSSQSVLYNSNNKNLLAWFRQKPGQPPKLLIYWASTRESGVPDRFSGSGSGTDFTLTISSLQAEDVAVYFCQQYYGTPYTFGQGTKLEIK
notes: Fully human mAb from TC-mAb mouse hybridoma; also called mAb 10B3

- Kd [1]: 0.00413 nM
- Response [1]: 0.89
- koff [1]: 5.38e-07 s⁻¹
- kon [1]: 130000 M⁻¹ s⁻¹
- % Control [2]: 55%
B3: 10C8 (antibody, V domains shown)
VH: QVQLVQSGAEVKKPGASVKVSCKASGYTLTSYGISWVRQAPGQGLEWMGWISAYNGNTNYAQKLQGRVTMTTDTSTSTAYMELRSLRSDDTAVYYCARELLWFGELLSQYYYYGMDVWGQGTTVTVSS
VL: DIQMTQSPSTLSASVGDRVTITCRASQNISRWLAWYQQKPGKAPKLLIFRASSLETGVPSRFGGSGSGTEFTLTISSLQPDDFATYYCQQYNSYYTFGQGTRLEIK
notes: Fully human mAb from TC-mAb mouse hybridoma; also called mAb 10C8

- Kd [1]: 0.587 nM
- Response [1]: 0.64
- koff [1]: 2.95e-05 s⁻¹
- kon [1]: 50300 M⁻¹ s⁻¹
- % Control [2]: 116%
B4: 14A6 (antibody, V domains shown)
VH: QVQLVESGGGVVQPGRSLRLSCAASGFTFSNYGMHWVRQAPGKGLEWVAVIWYDGSNKYYADSVKGRFTISRDNSKNTLYLQMNSLRAEDTAVYYCARGHSVSGGDYWGQGTLVTVSS
VL: DIQMTQSPSSLSASVGDRVTITCRASQSVNSFLNWYQQTPGKAPKLLIYAASSLQSGVPPRFSGSGSGTDFTLTISSLQPEDFATYYCQQSYSTPYTFGQGTKLEIN
notes: Fully human mAb from TC-mAb mouse hybridoma; also called mAb 14A6
